# B1: OPG-Fc (Sino Biological Inc.) (Fc fusion, UniProt O00300 22-401, looked up)
# chain: ETFPPKYLHYDEETSHQLLCDKCPPGTYLKQHCTAKWKTVCAPCPDHYYTDSWHTSDECLYCSPVCKELQYVKQECNRTHNRVCECKEGRYLEIEFCLKHRSCPPGFGVVQAGTPERNTVCKRCPDGFFSNETSSKAPCRKHTNCSVFGLLLTQKGNATHDNICSGNSESTQKCGIDVTLCEEAFFRFAVPTKFTPNWLSVLVDNLPGTKVNAESVERIKRQHSSQEQTFQLLKLWKHQNKDQDIVKKIIQDIDLCENSVQRHIGHANLTFEQLRSLMESLPGKKVGAEDIEKTIKACKPSDQILKLLSLWRIKNGDQDTLKGLMHALKHSKTYHFPKTVTQSLKKTIRFLHSFTMYKLYQKLFLEMIGNQVQSVKISCL
# notes: not shown: Fc part of the bought product
# Target: T1, recombinant human RANKL-murine Fc fusion protein (Sino Biological Inc.) (human, UniProt O14788 136-317, limits assumed)
# T1 construct: Bought; not shown: murine Fc
# T1 sequence (looked up): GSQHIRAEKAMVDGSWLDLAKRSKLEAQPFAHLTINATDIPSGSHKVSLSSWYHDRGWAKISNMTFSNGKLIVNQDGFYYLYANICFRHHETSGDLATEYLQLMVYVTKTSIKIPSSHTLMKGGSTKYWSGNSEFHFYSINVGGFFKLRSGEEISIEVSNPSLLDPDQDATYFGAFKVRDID
# Test: ELISA, human RANKL-murine Fc coated at 1 ug/mL, fusion protein titrated, anti-human IgG Fc-AP detection
binder,measurement,value
B1,EC50,0.04 µg/mL

# From patent US20230203204A1 (published 2023)
